{"source": "patent US20070248602A1", "key": {"[1]": {"biological_target": "human FcγRIIIa (FIG. 41 data; allotype not given) (human) (UniProt P08637)", "sequence (P08637 17-208)": "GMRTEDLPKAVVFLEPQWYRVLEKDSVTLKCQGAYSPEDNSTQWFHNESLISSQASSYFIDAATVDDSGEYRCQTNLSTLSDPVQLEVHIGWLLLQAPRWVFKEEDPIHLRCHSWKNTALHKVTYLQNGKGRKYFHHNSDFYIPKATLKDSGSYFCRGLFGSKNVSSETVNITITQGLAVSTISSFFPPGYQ", "assay": "AlphaScreen competition"}, "[2]": {"biological_target": "FcγRIIIa on human PBMCs expressing heterozygous V158/F158 FcγRIIIa (human) (UniProt P08637)", "sequence (P08637 17-254)": "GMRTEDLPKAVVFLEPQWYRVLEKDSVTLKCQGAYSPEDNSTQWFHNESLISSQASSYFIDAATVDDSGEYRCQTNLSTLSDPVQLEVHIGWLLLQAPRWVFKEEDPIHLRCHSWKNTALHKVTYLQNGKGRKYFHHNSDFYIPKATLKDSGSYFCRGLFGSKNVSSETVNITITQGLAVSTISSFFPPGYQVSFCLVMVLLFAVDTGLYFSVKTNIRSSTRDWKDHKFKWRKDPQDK", "assay": "cell-based or functional assay"}}, "data": [{"substance": "S239D/A330L/I332E Fc variant (FIG. 41 data, antibody context not told in the text)", "values": [{"measurement": "FcγRIIIa-fold", "setting": "[1]", "value": 139, "unit": "fold"}, {"measurement": "FcγRIIIa-fold:FcγRIIb-fold", "setting": "[1]", "value": 18}]}, {"substance": "S239D/I332E Fc variant (FIG. 41 data, antibody context not told in the text)", "values": [{"measurement": "FcγRIIIa-fold", "setting": "[1]", "value": 192, "unit": "fold"}]}, {"substance": "S239D/I332E alemtuzumab (antibody)", "values": [{"measurement": "ADCC EC50, DoHH-2 target cells", "setting": "[2]", "value": 3, "unit": "ng/mL"}, {"measurement": "ADCC Fold WT, DoHH-2 target cells", "setting": "[2]", "value": 3.3, "unit": "fold"}, {"measurement": "ADCC log(EC50), DoHH-2 target cells", "setting": "[2]", "value": 0.49}]}, {"substance": "V264I/I332E alemtuzumab (antibody)", "values": [{"measurement": "ADCC EC50, DoHH-2 target cells", "setting": "[2]", "value": 4, "unit": "ng/mL"}, {"measurement": "ADCC log(EC50), DoHH-2 target cells", "setting": "[2]", "value": 0.6}]}]}
